Measured values: publication PMC4586593 (The Journal of General Physiology, 2015)
Values joined by “and” are separate entries in the source; they are usually repeats but may differ in a detail not shown here. Equal values may be shown once.

Biological target: actin from chicken pectoralis muscle (F-actin, TRITC-phalloidin labelled) (chicken, UniProt P68139 1-377)
Assay: method of Cremo and Geeves

B1: smooth muscle myosin S1 head (domain or fragment)
chain 1: SQKPLSDDEKFLFVDKNFVNNPLAQADWSAKKLVWVPSEKHGFEAASIKEEKGDEVTVELQENGKKVTLSKDDIQKMNPPKFSKVEDMAELTCLNEASVLHNLRERYFSGLIYTYSGLFCVVINPYKQLPIYSEKIIDMYKGKKRHEMPPHIYAIADTAYRSMLQDREDQSILCTGESGAGKTENTKKVIQYLAVVASSHKGKKDTSITQGPSFSYGELEKQLLQANPILEAFGNAKTVKNDNSSRFGKFIRINFDVTGYIVGANIETYLLEKSRAIRQAKDERTFHIFYYLIAGASEQMRNDLLLEGFNNYTFLSNGHVPIPAQQDDEMFQETLEAMTIMGFTEEEQTSILRVVSSVLQLGNIVFKKERNTDQASMPDNTAAQKVCHLMGINVTDFTRSILTPRIKVGRDVVQKAQTKEQADFAIEALAKAKFERLFRWILTRVNKALDKTKRQGASFLGILDIAGFEIFEINSFEQLCINYTNEKLQQLFNHTMFILEQEEYQREGIEWNFIDFGLDLQPCIELIERPTNPPGVLALLDEECWFPKATDTSFVEKLIQEQGNHAKFQKSKQLKDKTEFCILHYAGKVTYNASAWLTKNMDPLNDNVTSLLNQSSDKFVADLWKDVDRIVGLDQMAKMTESSLPSASKTKKGMFRTVGQLYKEQLTKLMTTLRNTNPNFVRCIIPNHEKRAGKLDAHLVLEQLRCNGVLEGIRICRQGFPNRIVFQEFRQRYEILAANAIPKGFMDGKQACILMIKALELDPNLYRIGQSKIFFRTGVLAHLEEERDLKITDVIIAFQAQCRGYLARKAFAKRQQQLTAMKVIQRNCAAYLKLRNWQWWRLFTKVKP
chain 2: CDFSEEQTAEFKEAFQLFDRTGDGKILYSQCGDVMRALGQNPTNAEVMKVLGNPKSDEMNLKTLKFEQFLPMMQTIAKNKDQGCFEDYVEGLRVFDKEGNGTVMGAEIRHVLVTLGEKMTEEEVEQLVAGHEDSNGCINYEELVRMVLSG
chain 3: SSKRAKAKTTKKRPQRATSNVFAMFDQSQIQEFKEAFNMIDQNRDGFIDKEDLHDMLASMGKNPTDEYLEGMMSEAPGPINFTMFLTMFGEKLNGTDPEDVIRNAFACFDEEASGFIHEDHLRELLTTMGDRFTDEEVDEMYREAPIDKKGNFNYVEFTRILKHGAKDKDD
For B1, the Kd was 15 nM and 25 nM.
